Legend:
[1] = biological target: tau oligomer secreted into the culture supernatant by human tauopathy iNs (FTDP-17 patient, MAPT intron 10+14 C>T) (human) (UniProt P10636); experiment: immunodepletion of human tauopathy iN culture supernatant with antibody-bound beads; tau oligomer measured by ELISA
[2] = biological target: tau oligomer secreted into the culture supernatant by human tauopathy iNs (FTDP-17 patient, MAPT intron 10+14 C>T) (human) (UniProt P10636); experiment: cell-based or functional assay

Sequence of tau oligometric complex 1 antibody (TOC1 antibody) (heavy): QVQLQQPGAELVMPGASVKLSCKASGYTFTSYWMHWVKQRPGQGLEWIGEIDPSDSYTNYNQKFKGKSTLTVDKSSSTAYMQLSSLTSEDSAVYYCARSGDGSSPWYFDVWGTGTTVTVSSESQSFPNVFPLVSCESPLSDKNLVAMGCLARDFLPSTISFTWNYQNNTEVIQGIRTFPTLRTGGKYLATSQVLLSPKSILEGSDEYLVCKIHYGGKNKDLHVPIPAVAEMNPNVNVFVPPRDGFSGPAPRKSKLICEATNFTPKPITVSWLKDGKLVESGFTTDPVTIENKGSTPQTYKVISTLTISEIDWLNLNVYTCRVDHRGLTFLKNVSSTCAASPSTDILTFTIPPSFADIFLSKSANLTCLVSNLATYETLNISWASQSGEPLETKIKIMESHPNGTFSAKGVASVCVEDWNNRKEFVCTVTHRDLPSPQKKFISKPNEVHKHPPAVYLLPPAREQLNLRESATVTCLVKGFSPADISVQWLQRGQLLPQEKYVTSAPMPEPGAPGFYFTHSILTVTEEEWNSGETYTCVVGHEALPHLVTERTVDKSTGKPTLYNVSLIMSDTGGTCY
Sequence of tau oligometric complex 1 antibody (TOC1 antibody) (light): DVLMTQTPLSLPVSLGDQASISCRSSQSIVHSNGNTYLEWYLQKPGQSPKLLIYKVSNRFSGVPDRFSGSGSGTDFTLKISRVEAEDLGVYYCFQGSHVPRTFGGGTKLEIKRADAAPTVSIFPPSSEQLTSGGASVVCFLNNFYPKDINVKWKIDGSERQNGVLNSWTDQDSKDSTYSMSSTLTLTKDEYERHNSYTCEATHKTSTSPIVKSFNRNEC
Sequence of tau oligomer secreted into the culture supernatant by human tauopathy iNs (FTDP-17 patient, MAPT intron 10+14 C>T) (human) (P10636 other isoform, or with tags, fused parts or gaps limits assumed): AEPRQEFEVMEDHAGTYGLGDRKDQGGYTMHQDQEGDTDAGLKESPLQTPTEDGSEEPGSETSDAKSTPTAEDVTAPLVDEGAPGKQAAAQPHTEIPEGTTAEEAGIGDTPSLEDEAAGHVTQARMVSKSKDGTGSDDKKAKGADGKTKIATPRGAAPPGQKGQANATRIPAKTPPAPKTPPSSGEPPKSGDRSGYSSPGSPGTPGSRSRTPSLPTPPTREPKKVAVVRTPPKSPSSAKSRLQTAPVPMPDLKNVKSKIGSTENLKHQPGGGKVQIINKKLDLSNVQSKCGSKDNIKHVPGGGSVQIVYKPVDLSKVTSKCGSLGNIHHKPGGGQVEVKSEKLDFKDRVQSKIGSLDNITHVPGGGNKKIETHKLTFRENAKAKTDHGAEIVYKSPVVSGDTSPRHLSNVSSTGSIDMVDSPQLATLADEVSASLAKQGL

amount of tau oligomer left in the culture supernatant after immunodepletion [1]: 27%
Substance: tau oligometric complex 1 antibody (TOC1 antibody)
survival rate of human normal iNs two days after adding the immunodepleted culture supernatant [2]: 130%

From patent US20180209962A1, “SCREENING METHOD USING INDUCED NEURONS” (KYOTO UNIVERSITY, priority 2014, published 2018)
